Test results: patent US20260102505A1, “ANTI-CD45-IGN ANTIBODY DRUG CONJUGATES AND USES THEREOF” (Vor Biopharma Inc., priority 2022, published 2026)

Experiments:
[1] = biological target: CD45 of non-human primate (NHP), on cells in vivo (non-human primate (NHP); not stated further); experiment: in vivo receptor occupancy on T cells at 24 h after a single dose of 0.10 mg/kg in NHP, n=6; footnote: * % RO measured after ADC clearance
[2] = biological target: CD45 of non-human primate (NHP), on cells in vivo (non-human primate (NHP); not stated further); experiment: in vivo receptor occupancy in NHP at the minimum efficacious dose of 0.15 mg/kg
[3] = biological target: CD45 of non-human primate (NHP), on cells in vivo (non-human primate (NHP); not stated further); experiment: in vivo receptor occupancy on T cells at 24 h after a single dose of 0.20 mg/kg in NHP, n=3; footnote: * % RO measured after ADC clearance
[4] = biological target: CD45 of non-human primate (NHP), on cells in vivo (non-human primate (NHP); not stated further); experiment: in vivo receptor occupancy on T cells at 24 h after a single dose of 0.05 mg/kg in NHP, n=3; footnote: * % RO measured after ADC clearance
[5] = biological target: CD45 of non-human primate (NHP), on cells in vivo (non-human primate (NHP); not stated further); experiment: in vivo receptor occupancy on T cells at 24 h after a single dose of 0.60 mg/kg in NHP, n=3
[6] = biological target: CD45 of non-human primate (NHP), on cells in vivo (non-human primate (NHP); not stated further); experiment: in vivo receptor occupancy on T cells at 24 h after a single dose of 0.30 mg/kg in NHP, n=6

% Receptor Occupancy (T-cells @ 24h) [1]: 4%
receptor occupancy (RO) [2]: 5%
% Receptor Occupancy (T-cells @ 24h) [3]: 6%
% Receptor Occupancy (T-cells @ 24h) [4]: 2%
% Receptor Occupancy (T-cells @ 24h) [5]: 100%
% Receptor Occupancy (T-cells @ 24h) [6]: 46%
B1: anti-CD45 ADC comprising anti-CD45 Ab5 conjugated to DGN-549 via cysteines at amino acid 265 (EU numbering by Kabat) in the Fc region, protease-cleavable linker (antibody, human IgG1, kappa, L234A L235A, V domains shown)
VH: EVQLVESGGGLVQPGGSLRLSCAASGFTFEAYSMNWVRQAPGKGLEWVSYISLSGATIHYADSVKGRFTISRDNAKNSLYLQMNSLRAEDTAVYYCARGGQYYYTSSDYGEVAFDIWGQGTMVTVSS
VL: DIVMTQSPLSLPVTPGEPASISCRSSQSLVSSGYNYLDWYLQKPGQSPQLLIYFGSSRASGVPDRFSGSGSGTDFTLKISRVEAEDVGVYYCMQRRRTPWSFGGGTKVEIKR
modifications: DGN549 (IGN pseudo dimer) via a protease-cleavable linker on the engineered Cys at position 265 (EU numbering; D265C)
